# Results from US20210145944.
# Columns and labels:
# Tau-441 (P301L) = Tau-441 (P301L) (UniProt P10636)
# Sequence of Tau-441 (P301L) (P10636 other isoform, or with tags, fused parts or gaps P301L): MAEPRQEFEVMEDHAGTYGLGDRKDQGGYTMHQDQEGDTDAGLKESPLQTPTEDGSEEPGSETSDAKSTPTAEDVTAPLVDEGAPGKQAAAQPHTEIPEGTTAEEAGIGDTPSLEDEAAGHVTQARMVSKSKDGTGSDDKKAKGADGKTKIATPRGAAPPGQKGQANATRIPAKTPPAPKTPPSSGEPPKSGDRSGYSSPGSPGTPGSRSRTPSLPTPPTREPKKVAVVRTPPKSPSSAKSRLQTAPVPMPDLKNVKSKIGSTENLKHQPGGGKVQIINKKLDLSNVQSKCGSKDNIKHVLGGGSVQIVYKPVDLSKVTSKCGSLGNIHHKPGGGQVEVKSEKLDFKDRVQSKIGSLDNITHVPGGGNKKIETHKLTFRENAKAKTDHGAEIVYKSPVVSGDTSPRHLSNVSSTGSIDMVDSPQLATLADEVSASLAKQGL
protein,measurement,setting,value
"cathepsin G (enzyme, UniProt P08311 21-244, looked up, species assumed, immobilized) Cathepsin G: IIGGRESRPHSRPYMAYLQIQSPAGQSRCGGFLVREDFVLTAAHCWGSNINVTLGAHNIQRRENTQQHITARRAIRHPQYNQRTIQNDIMLLQLSRRVRRNRNVNPVALPRAQEGLRPGTLCTVAGWGRVSMRRGTDTLREVQLRVQRDRQCLRIFGSYDPRRQICVGDRRERKAAFKGDSGGPLLCNNVAHGIVSYGKSSGVPPEVFTRVSSFLPWIRTTMRS","casein digestion by resin-immobilized protease, fluorescence (RFU) at 5 and 60 min",Bodipy-labelled casein,"bar at 5 min about 2.3x10^7 RFU, bar at 60 min about 5.3x10^7 RFU; highest of the three groups; no control bar drawn"
same,"casein digestion, fluorescence (RFU) of Bodipy-labelled casein after 1 h against protease concentration in solution",Bodipy-labelled casein,"near 0 up to about 0.1 ug/ml, rises to about 3.4x10^7 RFU; the last two points (about 50 and 100 ug/ml) are at the same height"
same,"casein-digestion activity, immobilized protease, fluorescence",Bodipy-labelled casein,exhibited casein-digestion activity at 5 minute and 60 minute incubation times
same,"casein-digestion activity, protease in solution, fluorescence",Bodipy-labelled casein,exhibited casein-digestion activity having linear reaction kinetics up to approximately 6 µg/ml of each protease
same,"digestion on immobilized protease column, SDS-PAGE silver stain (FIG. 3A)",Tau-441 (P301L),rapidly degraded
same,loss of the Tau-441 (P301L) band on a silver-stained SDS-PAGE gel after incubation on the protease column,Tau-441 (P301L),"no band in the Cathepsin G column lanes at 2, 10 and 20 min; the No protease column lanes show a strong band of equal strength at 2, 10 and 20 min"
